This note sets out measurements from patent publication US20110236309A1.

The target of test [1] is TGF-β2 (Homo sapiens (Human)) (UniProt P61812).
Test [2] concerns the target T1, TGF-β3 (Homo sapiens (Human)) (UniProt P10600).
T1 sequence: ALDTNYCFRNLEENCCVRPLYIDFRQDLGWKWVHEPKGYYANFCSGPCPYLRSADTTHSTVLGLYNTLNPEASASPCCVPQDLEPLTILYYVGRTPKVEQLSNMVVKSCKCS

Test [3] deals with TGF-β1 (Homo sapiens (Human)) (UniProt P01137).

Take “pan-specific TGF-β neutralizing antibody 1D11 (R&D Systems)”: the IC50 for TGF-β2 (neutralization, Mv1Lu luciferase reporter cells) in test [1] turned out to be 8.67 nM. Moreover, in test [2], the IC50 for TGF-β3 (neutralization, Mv1Lu luciferase reporter cells) turned out to be 0.029 nM. Moreover, in test [3], the IC50 for TGF-β1 (neutralization, Mv1Lu luciferase reporter cells) was determined as 1.43 nM.
